Measured values as given in the nanobody polyreactivity screen of Harvey et al. (2022).

Assay: yeast display, Sf9 membrane polyspecificity reagent, FACS + sequencing; frameworks hold sequencing errors
Method in brief: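 A nanobody's polyreactivity label depends on the gate it was sorted from. Yeast display cells were stained with 10% biotinylated, detergent-solubilized Sf9 membrane reagent for 1 hour at 4 °C, enriched on streptavidin microbeads and sorted by FACS. The low and high (top ~1%) gates were set on anti-HA fluorescence for expression and streptavidin fluorescence for reagent binding.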

Row | Sequence | polyreactivity (PSR sort gate)
1 | QVQLVESGGGLVQAGGSLRFSCAASGSIFQPYAMGWSRQAPGKERAFVAAISRSGGITYYADSVKGRFTISRDNAKNTVYLQMNSLKPEDTAVYYCAADYILWKGSNSYYYAGYYYWGQGTQVTVSS | low polyreactivity
2 | QVQLVESGAGLVRAGGSLRISCAASGNIYGANTMGWYRQAPGKERELDATITWSGGDTYYADSVKGRFTISRDNAKNSVYLQMNSLKPEDTAVYYCATRRFRYRPPFKYDYWVQGTQVTVSS | low polyreactivity
3 | QVQLVESGGGLVQAGGSLRLSCAASGSTIQLYAMGWYRQAPGKERELVAAITSSAGRTYYADSVKGRFTISRDNAKNTVYLQMNSLKPEDTAVYYCAKDGSFTFWGQGTQVTVSS | low polyreactivity
4 | QVQLVESGGGLVQAGGSLRLSCAASGSIFIINAMGWYIQAPGKERELVAAINNGVNTYYADSVKGRFTISRDNAKNTVYLQMNSLKPEDTAVYYCAADYGDPRVNEYDYWGQGTQVTVSS | low polyreactivity
5 | QVQLVESGGGLVQAGGSLRLSCAASGGIFLGNAMAWYRQATGKETELVASITRGGDTSYADSVKARFTFSRDNAKNTVYLQMNSLKPEDTAVYYCNADYYSVVEYDYWGQGTQVTVSS | low polyreactivity
6 | QVQLVESGGGLVQAGGSLRLSCAASGFTFAYYAMGWYRQAPGKERELVAAISSRGGSTYADSVKGRFTISRDNAKNTVYLQMNSLKPEDTAVYYCNAVVPRSRYFSWTYDYWGQGTQVTVSS | high polyreactivity
7 | QVQHVESGGGLVQAGGSLRLSCAASVLIFYIYAMGWYRQAPGKERELVAAITTGGRTNYADSVKGRFTISRDNAKNTVYLQMKSLKPEDTEVYYCAKDFPIWISHGPDTDNDYGGQGTQVTVSS | low polyreactivity
8 | QVQLVESGGGLVQAGGSLRLSCAASGSIFATNAMGWYRQAPGKERELVASISSGGGSTYYADSVKGRFTISRDNAKNTVYLQMNSLKPEDTAVYYCARRIGHGSRPYWLETWRYPYDYWGQGTQVTVSS | low polyreactivity
9 | QVQLVESGGGLVQAGGSLRLTCAASGNIFYSYAMGWYRQAPGKERELVAAITIDGSTTYADSVKGRFTISRDNAKNTVYLQMNSLKPEDTAVYYCAKEGEAYPATYRYQFDYWGQGTQVTVSS | low polyreactivity
10 | QVQHVESGGGLVQAGGSLRLSCAASGRTFPPYDMGWYRQAPGKERELVAAITSDGSTSYADSVKGRFTISRDNAKNTVYLQMNSLKPEDTAVYYCAAYRWYSAARMGYWGQGTQVTVSS | high polyreactivity
11 | QVQLVESGGGLVQAGGSLRLSCAASGGIFLYNSMGWYRQAPGKERELVADISSSGITYYADSVKGRFTISRDNAKNTVYLQMNSLNPEDTAVYYCAADSTTRPGLRVYDDYDYWGQGTQVTVSS | low polyreactivity
12 | QVPLVESGGGLVQAGGRLRLRCAASAFTFDSYAMGWNRQAPGKERELVAAITWSGGSTYSADSVKGRFTISRDNAKNTVYLQMNSLQPEDTAVYYCNVYRYDGDYWGQGTQVPVSS | high polyreactivity
13 | QVQHVESGGGLVQAGGSLRLSCAASGRTFRLYAMGRYRMAPGKERELVAAITRGGRTNYADSVKGRFTISRDNAKNTVYLQMNSLKPEDTAVYYCAVAGFDRGQYVRYYYWGQGTQVTVSS | low polyreactivity
14 | QVQLQESVGGPVLAGGSLRLSCGASGTIFVRLDMGWYRQARGKVREFVATIGSGSSTYYADSVKGSFTISRDNVKNTVYLKMNSLKPEDTAVYYCAVYAAEQSRHYYWDQGTQVTVSS | low polyreactivity
15 | QVQLVESGGGLVQAGVSLRLSCAASGFIFFPYVMGWYRQAPGKERELVARNTSGGGSTYYADSVKGRFTISRDNAKNTVYIQMNSLKPEDTAGYYCKARRIWYQSTFNYWGQGTQVTVSS | high polyreactivity
16 | QVQLVESGGGLVQAGGSLRLSCAASGRTFNTYAMGWYRQAPGKERELVAAISSGRRTYYADSVKGRFTISRDNAKNTVYLQMNSLKPEDTAVYYCAKRGRYSYKYDYWGQGTQVTVSS | high polyreactivity
17 | QVQLVESGGGLVQAGGSLRLSCAASGSTFEYYAMGWYRQAPGKERELVATMSIDGRTNYADSVKGRFTISRDNAKNTVYLQMNSLKPEDTAVYYCAARPYWRHRYDYWGQGTQVTVSS | low polyreactivity
18 | QVQLVESGGGLVQAGGSLRLSCAASGSIFNYYAMGWYRQAPGQERELVASISRGGSTNYADSVKGRFTISRDNAKNTVYLQMNSLKPEDTAVYYCNAEGWPGNVVYGYYYWGQGTQVTVSS | low polyreactivity
19 | QVQLVESGGGLVQAGGSLRLSCAASGRIFRYYAMGWYRQAPGKERELVAAISGGGGTYYADSVKGRFTISRDNATNTVYLQMNSLKPEDTAVYYCNAETYDYWFGYDYWGQGTQVTVSS | high polyreactivity
20 | QVQLVESGGGLVQAGGSLRLSCAASGRTFFYYAMGWYRQAPGKERELVAAITTDGGTTSYADSVKGRFTISRDNAKNTVSLQMNSLKPEETAVYYCAADASYQYYPYDYWGQGTQVTVSS | low polyreactivity
21 | QVQLVDSGGGLVQAGGSLRLSCAASGSTFYYNAMGWYRQAPGKERELVARISRSGGSTYADSVKGRFTISRDNAKNTFYLQMNSLKPEDTAVYYCNADAYGTPEFTSYAVCYDYWGQGTQVTVSS | low polyreactivity
22 | QVQLVESGGGLVQAGGSLRLSCAASGSTFPHYAMGWYRQAPGKERELVAAISWSGSSTYYADSVKGRFTISRDNAKNTVYLQMNSLKPEDTAVYYCNKLPRRAPQFTYDYWGQGTLVTVSS | high polyreactivity

Row | Sequence | polyreactivity (PSR sort gate)
23 | QVQLVESGGGLVQAGGSLRLSCAASGSIFWVYAMGWYRQAPGKERELVAAISSGGSTNYADSVKGRFTISRDNAKNTVYLQMNSLKPEDTAVYYCAAVIRTVRERYGFWGQGTQVTVSS | high polyreactivity
24 | QDQLVESGGGLVQAGGSLRLSCDASGSTFYRYDMGRSRQAPGKERELFAAINQSGDSTYYADSVKGRFTISRDKAKNTVYLQMNSLKPEDTAVYYCAAVRSRYLAFYYWGQCTQVTVSS | low polyreactivity
25 | QVQLVESGGGLVQAGGSLRLSCAASGFTFKYNAMGWYRQAPGKERELVAAITASGGSTRYADSVKARFTISRDNAKNTVYLQMNSLKPEDTAVNYCAARKWFPRYSASPRSHGPYDYWGLGTQVTVSS | high polyreactivity
26 | QVQLVESGGGLVQAGGSLRLSCAASGSTFNRYAMGWYRQAPGKARELVATNNSGTSTNYADSVKGRFTISRDNAKNTVYLQKNSLKPEDTAVYYCAKTFRRSVGGYGYEYWGQGTQVTVSS | low polyreactivity
27 | QVQLVESGGGLVQAGGSLRLSCAASGSTLGWYGMGWSRQAPGKERELVAAIDSGGNTYADSVKGRFTISRDNAKNTVYLQMNSLKPEDTAVYYCAVDGGEFSSYGYWGQGTQVTVSS | low polyreactivity
28 | QVQLVESGGALVQAGGSLRLSCAASGSTFLNYAMRGYRQATGKARELVAGINSGGSTNYADSVKGRFTISRDNAKNTVYLQMNSLKPEDTAVYYCAGDRVGNEYDYWGQGTQVTVSS | low polyreactivity
29 | QVHLVESGGGLVQAGGSLRLSCPASGSTFYDNAMGCYRQPPGKERELVARIRWSGVRTYYADSVKGRFTISRDNAKNTVYLQMNSLKPEDTAVYYCAAGRPSRHWWSLDYYFWGQGTQVTVSS | low polyreactivity
30 | QVQLEESGGGLVQSGGSLRLSCAASGITFARYTMGWYRQAPGKERELVAAISSAGNTYYGDSVKGRFTISRDNAKNTVYLQMNSLKPEDTAVYYCAREYTYYPRWVGYDAYGEDYWGQGTQVTVSS | low polyreactivity
31 | QVQLVESGGGLVQAGGSLRLSCAASGSTLIRNDMGWYRQAPAKERELVAAINTRGTTTYYADSVKGRFTISRDNAKNTVYLQMNSLKPEDTAVYYCAAYAYSAYSPDGQRSRYYYWGQGTQVTVSS | high polyreactivity
32 | QVQLVESGGGLVQAGGSLRLSCAASGSTFAVYAMGWYRQAPGKERELVAAITRSGGDTYYADSVKGRFTISRDNAKNTVYLQMNSLKPEDTAVYYCAAAPRYGEEYWGQGTQVTVSS | low polyreactivity
33 | QVQLVESGGGLVQAGGSLRLSCAASGIIFIAYAMGWYRQAPGKERELVADISIGGSTNYADSVKGRFTISRDNAKNTVYLQMNSQKPEDTAVYYCNAGGGFYGSTVEHDYWGQGTQVTVSS | low polyreactivity
34 | QVQLVESGGGLVQAGGSLRLSCAASGSTFHSNAMGWYRQAPGKEREVVATISFGGGSKYYADSVKGRFTISRDNAKNTVYLQMNSLKPEDTAVYYCARDQTFGPCPYVWYYYPGYDYWGQGTQVTVSS | low polyreactivity
35 | QVQLVESGGGLVQAGGSLRLSCAASGSIFVWYAMGWYRQAPGKERELVARITSGGRTNYADSVKGRFTISRDNAKNTVYLQMNSLKPEDTAVYYCAAGRVSWSAYYYWGQGSQVTVSS | high polyreactivity
36 | QVQLVESGGGLVQAGGSLRLSCAASGRTFGYYAMGWYRQAPGKERELVAAISRSGGSTYYADSVKGRFTISRDNAKNTVYLQMNSLKPEDTAVYYCAVKGYVKSDYWGQGTQVTVSS | high polyreactivity
37 | QVQLVESGGGLVQAGGSLRLSCAASGLIFRYYAKGWYRQAPGKERELFAAISLRGGSTYYADSVKGRFTISRDNAKNNVYLQMNSLKPEDTAVYYCAAQWASFSVANLYGYWGQGTQVTVSS | high polyreactivity
38 | QVQLVESGGGLVQAAGSLRLSCAASGSIFNRSTMGWSRQAPGKERELVAGISRGGTTYYADSVKGRFTISRDNAKNTVYLQMNSLKPEDTAVFYCAADYGLLYGQLWGYGYWGQGTQVTVSS | high polyreactivity
39 | QVQLVESGGGLVQAGGSLRLSCAASGSIFYSNAMGWYRQAPGKERELVAAITWSGGSTYYADSVKGRFTISRDNAKNTVYLQMNSLKPEDTAVYYCNARRNVRQTFGYEYWGQGTQVTVSS | high polyreactivity
40 | QVQLVESGGGLVQAGGSLRLSCAASGSIFSYYAMGWYRQAPGKERELVAAISGSGGSTYYADSVKGRFTISRDNAKNTVYLQMNSLKPDDNAVYSCAARYYAWGRRRTWDDYWGQGTQVTVSS | high polyreactivity
41 | QVQLQESGGGLVQAGDSQRLSCAASGNIFRFTDRGWYRQAPGKERELVAAINAGSTTYYADSVKGRFTISRDNAKNTVYLQMNSLKPEDTAVYYCAVYYLGSGTFGYWGQGAQVTVSS | high polyreactivity
42 | QVQLVESGGGLVQAGGSLRLSCAASGFTFNRYTMGWYRQAPGKERELVASISVRGSRTYYADSVKGRFTISRDNAKNTVYLQMNSLKPEDTAVYYCNAKTYVFYRLRSYYYWGQGTQVTVSS | high polyreactivity
43 | QVQLVESGGGLVQAGGSLRLSWAASGRIFASYAMGWYRQATGKERELVAAISGSGGSTYYADSVKGRFTMSRDNAKKTVYLQLNSLKPEDTAVYYCAARYRSYWYRYVGYDYWGQGTQVNVSS | high polyreactivity
